This is an account of results in the DeepSol protein solubility set.

The data set is described as follows: soluble on expression in E. coli; label from the status in PepcDB or PDB records.
On to “MMKKIKILSLLVCLIALFTACHDEEDKTNYGSRTVLVYIAGDNSLSRFASEDLNEMIEGMQSVDDNHNNLLVYMDKGSNPKLIRLRKDKDVVVQDVIATYDAQNSVDVDVMKNVFTTAFSHYPADSYGVVFWSHGDGWLPYNNPSTRWWGQDTGNGDNRMNIPDLNEALSVAPHFDFILFDACYMQSVEVVYQLRNRADYFIGSPTEIPGPGAPYEVVVPALFAVNSPAVSIAENYYSVYAKKYNSTGAGISNENWTGGVSISVIKSSELSALAAATRDVLQTAVSMQQSHNIDISSILCYDPLRENNYHDLMGLMQSIQGNSQAFNHYKEMYKNAVIWKNTTDNNYCTYSSGYGKMVSMDGFEGVSTYILRENNSSQEKYYRQFVEWYSAADWDSVDWLEHHHHHH”, for which the “soluble on expression in E. coli” value is listed as “not soluble”.

For the sequence “MGSDKIHHHHHHMRIEVKLLPLKDNPILPFNYNYEVYSQILEKVNSIEPTIAKLLSSPHGFWTFSRIIVRKRKILPDKGIEILSDDVSLYISSSNEDIIRAIAEAVEKSPEFKIGELSFLVGDIKAIKVKELGKENVFSTLSPIVVRTVKFEGNKLRHWDLYPHDELFMDRLRKVMILRYSEVMGETPKDRDFTIEVLKFKPTRLMVGSSYIRGSLMVFRYAGSEEIARFGYENGFGEKTGLGFGMVKLIE”, the “soluble on expression in E. coli” value is listed as “not soluble”.

For the sequence “MSVPGPSSPDGALTRPPYCLEAGEPTPGLSDTSPDEGLIEDLTIEDKAVEQLAEGLLSHYLPDLQRSKQALQELTQNQVVLLDTLEQEISKFKECHSMLDINALFAEAKHYHAKLVNIRKEMLMLHEKTSKLKKRALKLQQKRQKEELEREQQREKEFEREKQLTARPAKRM”, the “soluble on expression in E. coli” value was “soluble”.

For the sequence “MDDSTLRDRLEQLGLSEKEVDTYLSILSSGEATASEIADDTGVSKRYVYSISESLEDRGFVEVNDHVVPTTIRARPPEEVIDALTDRLEEMSGALDSRYSASAREPQQFDVIKSRVTVIKRLTEYIRNAEREIMLSVPQQYLPEISEELGAAVDRGVLVMLVVSSADNLRSDDASGLASVVRSWDQPMPIMLTVDAQFGLVSPAEMVTRTNSDQRAIAFVQQQLVPVLSGSFLGNYWLMATEVAVTDPAPLPATYHDFRHAVLQATLHLRADHDIHVSADVRAVQADDDTTTIEGTVVETKQGLVEPETNSYPIEHTLVVDIGDRTVSLGGSGSFLEDYETDAVTLSLAE”, the “soluble on expression in E. coli” value is “not soluble”.

Consider “GMEFLMKISHLDHLVLTVADIPTTTKFYEKVLGMKAVSFGSGRIALEFGHQKINLHQLGHEFEPKAQNVRTGSADLCFITDIDLSDAMEYVENQGVVIMEGPVKRTGAQGAITSFYFRDPDGNLIEVSTYSNT”, for which the “soluble on expression in E. coli” value is on record as “soluble”.

For “SNAGQLCCLREDGERCGRAAGNASFSKRIQKSISQKKVKIELDKSARHLYICDYHKNLIQSVRNRRKRKGS”, the “soluble on expression in E. coli” value was “soluble”.

For the sequence “MSLSETASAENLLGAYLKDRRTRLDAAAFGLSGSRRRTPGLRREEVAQRANISPTWYTWLEQGRGGAPSADVLDRIARALMLTDVEREHLFLIGLGRPPEVRYQASDGVSPRLQRVLDALAFSPALVRTATWDVVAWNRAATAVLTDYGAIPPGQRNILRFIFCDPRVRAAQYDWDSVARFVVAAFRADAARAGAVSHVADFVDELCRTSPEFAALWRDNDVRHHGDGTKRLRHPVHGTMSFEYSSFNVEGRSDLSMIVYNPATPEDADRIRTLLAERADEGHHHHHH”, the “soluble on expression in E. coli” value is on record as “soluble”.

For “MRNIMEQYTEKPEILMLTQQSLQSENFKEMLSKNTETKITIIDAKNPSYHELIPDRYFLLVDFSVDTPSDTLVYLKDSNKVLGTIMLNLGYDLDTEELASWPHVKGIFGPLDSMEKVCRGLGAIVKGDNWLSRRLLDQLVNYYKGKESNNVSEP”, the “soluble on expression in E. coli” value is recorded as “not soluble”.

Regarding “MFAVRTKFVTKTEVVLRTVYTALEKGLAVIGPTQVAEELGVSKSTAQKMLNELSKAGYGVYVPKKGLVLNERGKMEARAAVRMHRLIECLLADLGVEDFCKEAEKIGMVAGSSLVDALEARYGDREFCPCGKRIPEVKK”, the “soluble on expression in E. coli” value is reported as “not soluble”.

For the sequence “MSRLRVFRQTGWFIAGLMTGLPATAAPAEASSMAGVAVAVATTTPPDATATLQAMQSCRRESAALERLDCYDHLLAPLSPSGFDGALVKAGFVGEAWTRATEQEKRREGNTTELLVTQVPGERPTVVITTPAIGHVPPRPVLMFSCVDNITRMQVALMHPLDVHDIAVTLNADSRALRSHWFVRENGTLLESSRGLSGIDEIKQLFGAKTLTVDTGADNAAGKLTFNIDGLARAIAPLRDACHWAGE”, the “soluble on expression in E. coli” value is recorded as “not soluble”.

Regarding “MYKLIAIDMDGTLLNDHHEVTEEVRDALHAAKAEGVKIVLCTGRPIGGVQRYLDELNLIEEGDYVIAYNGALVQNTHTNEVVSELSLGYDDLTSLYDLSLELKTPMHFFDSSNLYTPNRDISEFTVYESYVTQVPLHFRKIDEVPKDILIPKVMFIDKPENLSRVITSIPKDVREKYTMVRSAPFFYEILHSEASKGNAVRQLAQLLGIEQAEVMCIGDNGNDLTMIEWAGCGVAMANAIPEVLEAANFQTRSNNEHGVAHAIHELVLAKLEHHHHHH”, the “soluble on expression in E. coli” value is reported as “soluble”.

“MTFLDRTPDIILTMNEEGVIVSQNETARRVFGDVGGKIYSEICKDDTCSVGDRYYSMVAIKGFRRTIVVGRDITERIRLEKELEDRERKFKALAELSPAGILVHHQGTILFVNEALCQIHGYTREELLNRKVWDLIHPDYHDLARAMMQKRLEGEKPVYELKTIRKDGSERWVLVAGGAIDWDGKKSVMAFAIDITDKKMIEQRLAEREELFRSIFNISPAGLYILVGGKFKLVNPAFERITGYSAEELVGMKSLEIVAEEDREFVRRKAIEMLKGRETEPYKYRVVRKDGKIRWVYENVASIAYEGERAALGSVIDITEIEEERKRLEELTSMLELINKTLRHDVLNALTSAMALLEMGIEESNKDYLNKALTSINRAVSIVRNMRAFEDAVKSGELRCIDVGELVSEVAKSFENVSVKGEGRALADEGLRSVVENIVNNAFIHSGTDRVEITVSEGKEWCEIRIADFGIGIPDEIKQRIFEEGFKYGKAAQTGLGLFIARKIVERYAGEIWVEDNEPKGSVFVIRLKKC”: the “soluble on expression in E. coli” value was “not soluble”.

Turning to “MGSDKIHHHHHHDDDIIGALLEGKMPQATPVPPPTTVAATVASIDPPALKPAVDPRWVHLHNVHTGEKLEAVYWENGDYVPDAVSALDKVLRDYRNDEVHPIDRGLYDLLDQIARKTQSKGPFQVISGYRSPATNRLLSKRSGEVAKKSLHMDGKAMDIFLEDVELKHVRAAALDLSVGGVGYYPTSNFVHVDVGPVRKWTGT”, the “soluble on expression in E. coli” value is recorded as “not soluble”.

As for “MAFSVAYDLIPNKLIKDIDEMNQWLHDKINRAVYLVGFATQQSDYEYKLYELFKALDELEERLKKQLFLFGNQLTESDLYLLATLERFDNIYFCLFKCSLKRIADYPALFRYHNQLRGMESLASTYQPVLTKEHYFMSTMHVLGLEHHHHHH”, the “soluble on expression in E. coli” value is on record as “not soluble”.

For “MPVDKNLRDLEPGIHTDLEGRLTYGGYLRLDQLLSAQQPLSEPAHHDEMLFIIQAQTSELWLKLLAHELRAAIVHLQRDEVWQCRKVLARSKQVLRQLTEQWSVLETLTPSEYMGFRDVLGPSSGFQSLQYRYIEFLLGNKNPQMLQVFAYDPAGQARLREVLEAPSLYEEFLRYLARFGHAIPQQYQARDWTAAHVADDTLRPVFERIYENTDRYWREYSLCEDLVDVETQFQLWRFRHMRTVMRVIGFKRGTGGSSGVGFLQQALALTFFPELFDVRTSVGVDNRPPQGSADAGKRLEHHHHHH”, the “soluble on expression in E. coli” value is on record as “soluble”.

Take “MRETKEWRGTTSTSRVFVQKGYQLSDELALRKVQVLERRYGGMQLAHRAATVIQRAWREYCIMKQWMVIRHKHDTIPDHLDARCGVSNSQRNELSLTSRYATSLSAQLRIDRAARSTTLDRSPPSPAPPVLVNLQNSNMIDSLMSPRLGNRRFGAAASRCAPAAAELTSTEVWLPRPSLVNHNPAHSNSLPRLQLLTAWGFVKNSPDSLASLLFGRRGLSKSMIGEYIGTLHSPYHSLVLKYFTALIDIRGLEVDVALRKAMQFFILPKEAEKIDRIIQAFALHYSKSNPKRTSHYRGGWDTIHLLSFAIIMLNTDLHSPNVKQRMTQADFVKNLRGQDKISGEKNGEDIDRKTLEGIYDRIKKDELKAGDDHVAQVQRVDRAIVGKDKPRLTETPRRLVCYCRLQQVSDPTKRQSSSARERDVFLFNDMIVVAKGVRRGSTSMAGCTYTLKQWTLLLGAHVTEFQRGQYEFGLTITCPNKDKIHFNARNFEDRCHFVADVTESIREATEMEQVRLEMEMEQHTTTTIRPDNQRDSGLPDMDESMKLSNGSNSSAGSSNSSTNGVNNSSFRRLSFNSLDSGVVEEHLDAC”: the “soluble on expression in E. coli” value is on record as “not soluble”.

As for “MSLAPNPYLTGRTLNIAHQGGEALWPSNTLTAYRGAVALGVDLLEMDLHATRDGALVLSHDATLDRLTDTQGRIADLTLEQVLRADAGYTLTPAGGSGFPFRGQGVQVAQLKDVLREFPNTPLIIELKQASPSIAAPFCAELRRAGATGRVIAASFSDAALNEFRRLCPEVMTSMTERELRPLVLLSKVGLSALAPTPGQVAQVPVRSGGIEIVTPAFVRALHARGVAVQVWTIDDEAEMRRLVQMGVDGVITNRPDLLKKVLAEREGHHHHHH”, the “soluble on expression in E. coli” value is listed as “not soluble”.

Turning to “MSELFSERIPPQSIEAEQAVLGAVFLDPAALVPASEILIPEDFYRAAHQKIFHAMLRVADRGEPVDLVTVTAELAASEQLEEIGGVSYLSELADAVPTAANVEYYARIVEEKSVLRRLIRTATSIAQDGYTREDEIDVLLDEADRKIMEVSQRKHSGAFKNIKDILVQTYDNIEMLHNRDGEITGIPTGFTELDRMTSGFQRSDLIIVAARPSVGKTAFALNIAQNVATKTNENVAIFSLEMSAQQLVMRMLCAEGNINAQNLRTGKLTPEDWGKLTMAMGSLSNAGIYIDDTPSIRVSDIRAKCRRLKQESGLGMIVIDYLQLIQGSGRSKENRQQEVSEISRSLKALARELEVPVIALSQLSRSVEQRQDKRPMMSDIRESGSIEQDADIVAFLYRDDYYNKDSENKNIIEIIIAKQRNGPVGTVQLAFIKEYNKFVNLERRFDEAQIPPGA”, the “soluble on expression in E. coli” value is reported as “soluble”.

As for “MKIEIKVQIKDGKNSPNLKPGGYIVSASKSFSIDYSKAVAITRNPEIYKNIGIPYIWISKVEGENAISPTNLPKLLHTMISLSKKHPGVTFIIDSVEYLALENGFESTFKFLISAKDHLMLNNSSLVLIIEDKAFKPNELALLKKEFKEISLEHHHHHH”, the “soluble on expression in E. coli” value was “soluble”.

For “MAVMKVLIVEDETAAYENLTDILTEITPDIRIMANTESVTQTVGWLQSNPAPDLIFMDIHLSDGSAFAIFDRIELETPIIFTTAYDRYAIEAFKVNSIDYLLKPVKVEDVEHALEKYSKLTRQDLLQYLSQLTLLKPAPRYKDKLLIAHKDKLLPVNIKNISYFYATGKNTYVCLKDGNRYPYSKTLEQIASSLNPEDFIRANKQFIVARDSVTDITIWFDNRLLITLDTEVPERIYVSKNKASEFKTWLVNDK”, the “soluble on expression in E. coli” value is recorded as “not soluble”.

Take “TPTDKHGGSDTRCPLMVKILDAVKGTPAGSVALKVSQKTADGGWTQIATGVTDATGEIHNLITEQQFPAGVYRVEFDTKAYWTNQGSTPFHEVAEVVFDAHPEGHRHYTLALLLSPFSYTTTAVVSSVHE”: the “soluble on expression in E. coli” value is on record as “soluble”.

Turning to “HGPAPLDLDKYVEIARLCKYLPENDLKRLCDYVCDLLLEESNVQPVSTPVTVCGDIHGQFYDLCELFRTGGQVPDTNYIFMGDFVDRGYYSLETFTYLLALKAKWPDRITLLRGNHESRQITQVYGFYDECQTKYGNANAWRYCTKVFDMLTVAALIDEQILCVHGGLSPDIKTLDQIRTIERNQEIPHKGAFCDLVWSDPEDVDTWAISPRGAGWLFGAKVTNEFVHINNLKLICRAHQLVHEGYKFMFDEKLVTVWSAPNYCYRCGNIASIMVFKDVNTREPKLFRAVPDSVRASSPSPL”, the “soluble on expression in E. coli” value is “soluble”.
